These are literature values, as cited in article PMC7763558.

pKd: −log10 of the molar value.

Common to all, as to experiment: SPR
For orientation: SPR reads the build-up and loss of mass on a sensor chip optically.

Series [1] addresses BPTI (unfolded client) (Bos taurus) (UniProt P00974).
For series [2], the target named is BPTI (native client) (Bos taurus) (UniProt P00974).
For series [3], the target named is BPTI (partially folded client) (Bos taurus) (UniProt P00974).

PDI (from UniProt P07237): the results for the pKd in series [1], in series [2] and in series [3] were 5.52, 3.40 and 4.85, respectively.
